This assay has as its target SARS-CoV-2 Nucleocapsid (N) protein, wildtype, SUMO1 modified (SARS-CoV-2 | not stated). Put plainly: FRET or BRET.

Consider “SARS-CoV-2 Nucleocapsid (N) protein, wildtype, SUMO1 modified”, for which the Kd (in general, the equilibrium constant for the complex coming apart) is 460 nM.
